Laboratory results reported in patent US8821943B2, “Methods and compositions for targeted delivery of therapeutic agents” (Board of Regents of the University of Nebraska, priority 2006, dated 2014).

System: excised bovine nasal tissue (MTA, MTP, ITP regions)
Test: Nanoparticle transport and uptake across excised bovine nasal tissue (Ussing chambers)
Type: in vitro ADME
Settings: for Remaining in Donor / Total / Washes: mass balance; for Tissue Uptake / Transport: mass balance after 4 hr transport; for decrease in transport on co-treatment with free ligand / decrease in uptake on co-treatment with free ligand: m:s
Experimental: Transport studies were conducted in bovine nasal tissue. Bovine nasal tissue was obtained from freshly slaughtered cattle, and different regions (MTA, MTP, ITP) were prepared as described in Example 13. Nanoparticles coupled to deslorelin or transferring via aldehyde sulfate moieties were prepared as described in Example 3. The nanoparticle size was measured using a Zeta Plus Analyzer (Brookhaven Instruments Limited, UK). Particle size was analyzed before and after ligand conjugation in deionized filtered water.
The tissues were exposed to 5 ml of assay buffer with either peptide conjugated or plain nanoparticles on the donor side (mucosal or serosal surface). Assay buffer (5 ml) without particles was exposed to the receiver side (serosal or mucosal surface). The buffers used were pre-equilibrated to 37° C. or 4° C. The donor nanoparticle concentration was 20 or 100 μg/ml. […] Donor samples were collected at the beginning (replenished with particle stock suspension) and at the end of the experiment. The samples were collected in polypropylene tubes, capped, and stored at 4° C. until analysis. The aperture/tissue area exposed to the bathing fluids in this set up was 1.78 cm^2.
Nanoparticle Uptake: At the end of 4 hr in the above transport studies, the tissues exposed (1.78 cm^2) to the nanoparticle suspension were cut and washed thrice using 1 ml of assay buffer at pH 5. After the washes, the tissues were weighed and placed in 1 ml of 2% Triton-X 100™ and homogenized until a tissue suspension was formed using the Tissue Tearor™. The tissue debris was separated by centrifugation at 3000 rpm (Marathon Micro A, Fisher Scientific, Pittsburgh, Pa.) for 10 min. The supernatant was collected to analyze the amount of nanoparticles taken up by the tissue. Standard curves were prepared by homogenizing serial dilution of the stock solution with approximately 100-150 mg of nasal tissue. The homogenates were then centrifuged and the supernatant was analyzed.
Nanoparticle Transport and Uptake: Competition with Free Ligand: Similar to the transport and uptake studies mentioned above, the competition study was carried out using the modified Ussing chambers. The tissues were exposed to 20 μg/ml of nanoparticles conjugated with deslorelin or transferrin in the presence of 10 times (200 μg/ml) of plain deslorelin or transferrin in the donor chamber. Receiver samples were obtained at various intervals up to 4 hr and replaced with pre-warmed assay buffer. At the end of 4 hr the tissue region exposed to the nanoparticle preparation was cut and washed in assay buffer at pH 5. The tissues were then homogenized and centrifuged. The supernatants were analyzed to determine nanoparticle uptake.
Nanoparticle Quantification: The samples obtained from the transport studies, washes and supernatants of tissue homogenates were analyzed for nanoparticle content using a spectrofluorometer (Cary Eclipse, Varian Inc.). The excitation wavelength of 505 nm and an emission wavelength of 515 nm were used. Bandwidths of 3 or 5 nm were used for the sample analysis after dilution as required. The procedure used for extraction of the nanoparticles was performed as mentioned in the methods section under nanoparticle uptake. […] Briefly, similar amounts of tissues (weighed to match weight of tissues obtained from the transport experiment) were spiked with serially diluted stock nanoparticle suspensions (0.3 μg/ml-100 μg/ml) prepared in 2% Triton-X 100™. The tissues were homogenized, centrifuged and the supernatant obtained was used for standards. Standard curves were also prepared in assay buffer and acid wash buffer.

[1] = 20 μg/ml nanoparticles + 200 μg/ml free ligand, ITP
[2] = 20 μg/ml nanoparticles + 200 μg/ml free ligand, MTP

For “Transferrin-AS: transferrin-aldehyde sulphate-conjugated polystyrene nanoparticles”, the “transport in the s:m direction greater than in the m:s direction” value (“transport … in the m:s direction” for short) (ITP) was 10%, the “Remaining in Donor” value (ITP) was 94.51 ± 1.10% and the Total (ITP) was 98.62 ± 1.13%. For the same substance, the Washes (ITP) was 0.75 ± 0.10%, the “Tissue Uptake” value (ITP) was 3.98 ± 0.10% and the Transport (ITP) was 1.97 ± 0.05%. The “transport … in the m:s direction” value (MTA) was 16%, the “uptake, times higher than plain nanoparticles” value (MTA) was 3.6 times and the “percent transport as well as uptake, times higher than deslorelin-nanoparticles” value (MTA, MTP and ITP regions) was 1.3-1.4 times. The “Remaining in Donor” value (MTA) was 93.06 ± 0.99%, the Total (MTA) was 98.77 ± 0.95% and the Washes (MTA) was 0.50 ± 0.13%. For the same substance, the “Tissue Uptake” value (MTA) was 2.13 ± 0.13%, the Transport (MTA) was 1.13 ± 0.07% and the “transport … in the m:s direction” value (MTP) was 17%. For the same substance, the “uptake, times higher than plain nanoparticles” value (MTP) was 2.9 times, the “Remaining in Donor” value (MTP) was 92.14 ± 2.20% and the Total (MTP) was 98.99 ± 0.52%. For the same substance, the Washes (MTP) was 0.60 ± 0.11%, the “Tissue Uptake” value (MTP) was 2.99 ± 0.14% and the Transport (MTP) was 1.52 ± 0.11%. For the same substance, the “decrease in uptake at 4° C. compared to 37° C.” value (“decrease in uptake … to 37° C.” for short) (m:s direction, ITP) was 77%, the “percent transport, times higher than plain nanoparticles” value (m:s direction, ITP) was roughly 1.8 times and the “decrease in uptake … to 37° C.” value (m:s direction, MTA) was 58%. For the same substance, the “percent transport, times higher than plain nanoparticles” value (m:s direction, MTA) was “approximately 3.3 times”, the “decrease in uptake … to 37° C.” value (m:s direction, MTP) was 70% and the “percent transport, times higher than plain nanoparticles” value (m:s direction, MTP) was roughly 2.1 times. For the same substance, the “decrease in transport on co-treatment with free ligand” value [1] was 25%, the “decrease in uptake on co-treatment with free ligand” value [1] was 44% and the “decrease in uptake on co-treatment with free ligand” value (20 μg/ml nanoparticles + 200 μg/ml free ligand, MTA) was 43%. For the same substance, the “decrease in transport on co-treatment with free ligand” value [2] was 33%, the “decrease in uptake on co-treatment with free ligand” value [2] was 45% and the “decrease in transport on co-treatment with free ligand” value (20 μg/ml nanoparticles + 200 μg/ml plain deslorelin or transferrin, MTA) was 22%. For the same substance, the “decrease in uptake … to 37° C.” value (s:m direction, ITP) was 80%, the “decrease in uptake … to 37° C.” value (s:m direction, MTA) was 65% and the “decrease in uptake … to 37° C.” value (s:m direction, MTP) was 75%.
